This note sets out measurements from patent US20030096367A1 (WASHINGTON UNIVERSITY, published 2003).

The target of one assay is T1, wild type human Bcl-2 (human, UniProt P10415 1-239).
T1 construct: also called hBcl-2; human Bcl-2 wild-type
The experiment in a line: immunoprecipitation of human Bcl-2 from double transfected FL5.12 cells, Western blot with anti-mouse Bcl-2 antibody (FIG. 21). An excerpt: (§1) Immunoprecipitates were washed (unless indicated otherwise) once in lysis buffer followed by a wash in lysis buffer without NP-40. Immunoprecipitates were solubilized with SDS-PAGE sample buffer and electrophoresed through 12.5% SDS-polyacrylamide gels. Gels containing (³⁵ S)methionine labeled proteins were fixed with 10% glacial acetic acid and 30% methanol overnight, enhanced by impregnating with a commercial fluorography enhancing solution (Enhance by DuPont) for 60′, and […] in water for 30′. Gels were then dried and autoradiography performed at−70° C.
(§2) For immunoblots, proteins were electrotransferred overnight at 4° C. on nitrocellulose membranes. Filters were blocked for 2 hours with phosphate-buffered saline containing 3% non-fat milk. All additional immunostaining steps were performed in phosphate-buffered saline with 0.05% Tween-20 (PBS-Tween) at room temperature. Filters were incubated with primary antibody for 2 hours. Species specific biotinylated secondary antibodies (1:300) were also reacted for 2 hours. Immunoblots were reacted with horseradish-peroxidase-Streptavidin (1:1000) for 1 hour. Filters were washed in PBX-Tween 4 times for 5′ between each step and were developed with […] (BioRad) enhanced with nickel chloride (0.03%).
(§3) In FIG. 21 cells are created that bear two expression constructs. The Dα15 cell line is an FL5.12 bearing human Bcl-2 wild-type and mouse Bcl-2 wild-type vector. The DN2 bears a control Neomycin resistant expression vector and mouse Bcl-2 wild-type vector. The clone DSM4-5 contains mutant Bcl-2 of domain I and a mouse Bcl-2 wild-type whereas the DSM-4 contains another Bcl-2 mutant of human origin with mouse Bcl-2 wild-type. […] In FIG. 21B we see a primary immunoprecipitation of either wild-type human Bcl-2 or the mutated human Bcl-2 in which the 3-4 and 4-7 mutants have no associated Bax. Those immunoprecipitations are then developed by Western blot analysis with an anti-mouse Bcl-2 antibody. Both the wild-type human Bcl-2 as well as the two mutants mI 3-4 and mI 4-7 both associate with the wild-type mouse Bcl-2.
(In general: A western blot detects proteins with antibodies after separation by electrophoresis.)

For assay [1], the target named is T2, human Bcl-2 mutant mI-3 (alanine for the glycine in the WGR sequence of domain I) (human, UniProt P10415 1-239).
T2 construct: also called mI 3-4; mI3-4
Described as above.
Source text: as §1, §2, §3

The target of assay [2] is T3, human Bcl-2 mutant mI-4 (glutamic acid for the glycine in the WGR sequence of domain I) (human, UniProt P10415 1-239).
T3 construct: also called mI 4-7; mI4-7
The description is as above.
Source text: as §1, §2, §3

Assay [3] deals with T2, human Bcl-2 mutant mI-3 (alanine for …). The experiment in a line: immunoprecipitation of radiolabeled FL5.12 and 2B4 stable transfectants (FIG. 18). Here is the method:
(§4) Prior to metabolic labeling, cells were washed once in prewarmed, serum-free, methionine-free Dulbecco's medium. Cells were resuspended at 3-5×10⁶ cells/ml in methionine-free Dulbecco's medium supplemented with 10% dialyzed FCS and either 5% complete medium or 5% WEHI 3B supernatant. Metabolic labeling was performed with 40 μCi/ml of ³⁵S)methionine, (³⁵S)cysteine for 9-12 hours before lysis. All steps of the immunoprecipitation were carried out on ice or in the cold room. Cells were washed twice with cold phosphate-buffered saline and lysed in an NP-40 isotonic lysis buffer with freshly added protease inhibitors (142.5 mM KCl, 5 mM MgCl₂, 10 mM HEPES pH:7.2, 1 mM EGTA, 0.2% NP-40, 0.2 mM phenylmethylsulfonyl fluoride, 0.1% Aprotinin, 0.7 μg/ml Pepstatin and 1 μg/ml Leupeptin) by nutation for 30′. Nuclei and unlysed cellular debris were removed by centrifugation at […] for 10′. Lysates were precleared with 10% v/v Protein A-Sepharose (Prot.A-S) for 30′ which was removed by centrifugation at 400×g for 2′. In experiments, the lysates were also mixed with 10× excess cold cells lysates for 15′ prior to the addition of the antibody. Specific antibodies were added for 90′ and immunoprecipitates were captured with 10% v/v Prot.A-S for 60′. […]

In assay [4] the target is T3, human Bcl-2 mutant mI-4 (glutamic acid …). The description is as above. Here is the method:
as §4

B1: murine Bcl-2 (wild type) (other, UniProt P10417 1-236, looked up)
chain: MAQAGRTGYDNREIVMKYIHYKLSQRGYEWDAGDADAAPLGAAPTPGIFSFQPESNPMPAVHRDMAARTSPLRPLVATAGPALSPVPPVVHLTLRRAGDDFSRRYRRDFAEMSSQLHLTPFTARGRFATVVEELFRDGVNWGRIVAFFEFGGVMCVESVNREMSPLVDNIALWMTEYLNRHLHTWIQDNGGWDAFVELYGPSMRPLFDFSWLSLKTLLSLALVGACITLGAYLGHK
notes: also called endogenous murine Bcl-2; mouse Bcl-2 wild-type
With B1, the binding result (with wild type human Bcl-2; in assay [1]; in assay [2]) was “binds” in each case.

B2: murine Bax (endogenous p21 of FL5.12 cells, Bax alpha) (other)
chain: MDGSGEQLGSGGPTSSEQIMKTGAFLLQGFIQDRAGRMAGETPELTLEQPPQDASTKKLSECLRRIGDELDSNMELQRMIADVDRDSPREVFFRVAADMFADGNFNTGRVVALFYFASKLVLKALCTKVPELIRTIMGWTLDFLRERLLGWIQDQGGWEGLLSYFGTPTWQTVTIFVAGVLTASLTIWKKMG
notes: also called murine p21 protein; mouse p21
For B2, the binding result in assay [3] and in assay [4] was “no binding” throughout.
